From patent US20230135471A1 (INTEGRATED DNA TECHNOLOGIES, published 2023)

Experiments:
[1] = target: MBP tagged 53BP1 fragment (a.a. 1484-1603); assay: BLI, fold change Ka of Ubv/Ka of CM1
[2] = target: MBP tagged 53BP1 fragment (a.a. 1484-1603); assay: BLI, KA (M-1), log axis

Row | Binder | binding result [1] | binding result [2]
1 | CM149 (designed binder) Ubv: MHHHHHHGGSGYLIFVRMLTGKMIELEVMPSDTIEVIKAKIQDHEGIPLDEQHLTFQGTLLDDGYTLGDYNLLIDPKKMPLLRMQ | binds | 
2 | CM149-DM (designed binder, also called CM210) Ubv: MHHHHHHGGSGYLIFVRMLTGKMIELEVMPSDTIEVIKAKIQDHEGIPLDEQHLTFQGTLLDDGYTLGDYNLLIDPKKMLVLRMQ |  | binds
